Experimental data from patent US20200115430A1 (I2O THERAPEUTICS, published 2020).
Starred links: 1 amine or outer side, 2 acyl side, 3 side chain; linkers in the order of their positions; H or OH if unused. Positions of bridges follow the written chain, without caps; N, C: chain ends. Non-standard residues stand in square brackets, D forms with d. Groups on a side chain read outwards from the residue. Primed or numbered codes have the meaning given here. No end group written: not given here. *: point of attachment. dpeg″ = —[CO(CH2)O(CH2)2O(CH2)NH]— spacer unit, O=C(COCCOCN[*:1])[*:2]; C20 diacid = O=C(O)CCCCCCCCCCCCCCCCCCC(=O)*; C18 diacid = O=C(O)CCCCCCCCCCCCCCCCC(=O)*; γGlu = O=C(O)[C@H](CCC(=O)[*:2])N[*:1]; Stearoyl = CCCCCCCCCCCCCCCCCC(=O)*; Palmitoyl = CCCCCCCCCCCCCCCC(=O)*

T1: human amylin 3 receptor (human, UniProt P30988 25-474; O60896 24-148)
T1 sequence (looked up) 1: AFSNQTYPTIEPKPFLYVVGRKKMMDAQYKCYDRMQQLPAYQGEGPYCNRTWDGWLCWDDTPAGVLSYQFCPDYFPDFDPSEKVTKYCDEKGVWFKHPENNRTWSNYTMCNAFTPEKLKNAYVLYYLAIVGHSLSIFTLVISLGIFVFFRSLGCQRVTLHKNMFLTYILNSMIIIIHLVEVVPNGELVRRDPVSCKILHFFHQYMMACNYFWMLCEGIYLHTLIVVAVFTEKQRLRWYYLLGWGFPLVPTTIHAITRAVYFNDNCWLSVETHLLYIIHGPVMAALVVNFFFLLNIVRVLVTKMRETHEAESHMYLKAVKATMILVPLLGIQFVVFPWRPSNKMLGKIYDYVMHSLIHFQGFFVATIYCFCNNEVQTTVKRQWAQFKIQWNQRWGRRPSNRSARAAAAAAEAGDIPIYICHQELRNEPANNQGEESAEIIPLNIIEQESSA
T1 sequence (looked up) 2: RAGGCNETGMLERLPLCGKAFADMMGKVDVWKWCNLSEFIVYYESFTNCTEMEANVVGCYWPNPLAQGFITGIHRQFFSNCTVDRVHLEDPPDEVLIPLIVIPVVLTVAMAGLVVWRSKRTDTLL

T2: human calcitonin receptor (human, UniProt P30988 25-474)
T2 sequence (looked up): T1 sequence (looked up) 1

B1: Compound A96 (peptide)
peptide: SCNTSTCATQRLAN[dK]([γGlu-γGlu-dpeg″-C20 diacid])LHKSSNNFGPILPPTKVGSETY-NH2
modifications: disulfide 2-7; N-terminus assumed
SMILES: CC[C@H](C)[C@H](NC(=O)[C@@H]1CCCN1C(=O)CNC(=O)[C@H](Cc1ccccc1)NC(=O)[C@H](CC(N)=O)NC(=O)[C@H](CC(N)=O)NC(=O)[C@H](CO)NC(=O)[C@H](CO)NC(=O)[C@H](CCCCN)NC(=O)[C@H](Cc1c[nH]cn1)NC(=O)[C@H](CC(C)C)NC(=O)[C@@H](CCCCNC(=O)CC[C@H](NC(=O)CC[C@H](NC(=O)COCCOCNC(=O)CCCCCCCCCCCCCCCCCCC(=O)O)C(=O)O)C(=O)O)NC(=O)[C@H](CC(N)=O)NC(=O)[C@H](C)NC(=O)[C@H](CC(C)C)NC(=O)[C@H](CCCNC(=N)N)NC(=O)[C@H](CCC(N)=O)NC(=O)[C@@H](NC(=O)[C@H](C)NC(=O)[C@@H]1CSSC[C@H](NC(=O)[C@@H](N)CO)C(=O)N[C@@H](CC(N)=O)C(=O)N[C@@H]([C@@H](C)O)C(=O)N[C@@H](CO)C(=O)N[C@@H]([C@@H](C)O)C(=O)N1)[C@@H](C)O)C(=O)N[C@@H](CC(C)C)C(=O)N1CCC[C@H]1C(=O)N1CCC[C@H]1C(=O)N[C@H](C(=O)N[C@@H](CCCCN)C(=O)N[C@H](C(=O)NCC(=O)N[C@@H](CO)C(=O)N[C@@H](CCC(=O)O)C(=O)N[C@H](C(=O)N[C@@H](Cc1ccc(O)cc1)C(N)=O)[C@@H](C)O)C(C)C)[C@@H](C)O
B2: Compound A99 (peptide)
peptide: SCNTSTCATQRLANELK([dpeg″-dpeg″-γGlu-C18 diacid])KSSNNFGPILPPTKVGSETY-NH2
modifications: disulfide 2-7; N-terminus assumed
SMILES: CC[C@H](C)[C@H](NC(=O)[C@@H]1CCCN1C(=O)CNC(=O)[C@H](Cc1ccccc1)NC(=O)[C@H](CC(N)=O)NC(=O)[C@H](CC(N)=O)NC(=O)[C@H](CO)NC(=O)[C@H](CO)NC(=O)[C@H](CCCCN)NC(=O)[C@H](CCCCNC(=O)COCCOCNC(=O)COCCOCNC(=O)CC[C@H](NC(=O)CCCCCCCCCCCCCCCCC(=O)O)C(=O)O)NC(=O)[C@H](CC(C)C)NC(=O)[C@H](CCC(=O)O)NC(=O)[C@H](CC(N)=O)NC(=O)[C@H](C)NC(=O)[C@H](CC(C)C)NC(=O)[C@H](CCCNC(=N)N)NC(=O)[C@H](CCC(N)=O)NC(=O)[C@@H](NC(=O)[C@H](C)NC(=O)[C@@H]1CSSC[C@H](NC(=O)[C@@H](N)CO)C(=O)N[C@@H](CC(N)=O)C(=O)N[C@@H]([C@@H](C)O)C(=O)N[C@@H](CO)C(=O)N[C@@H]([C@@H](C)O)C(=O)N1)[C@@H](C)O)C(=O)N[C@@H](CC(C)C)C(=O)N1CCC[C@H]1C(=O)N1CCC[C@H]1C(=O)N[C@H](C(=O)N[C@@H](CCCCN)C(=O)N[C@H](C(=O)NCC(=O)N[C@@H](CO)C(=O)N[C@@H](CCC(=O)O)C(=O)N[C@H](C(=O)N[C@@H](Cc1ccc(O)cc1)C(N)=O)[C@@H](C)O)C(C)C)[C@@H](C)O
B3: Compound A27 (peptide)
peptide: SCNTSTCATQRLANE[dK]([γGlu-γGlu-Palmitoyl])HKSSNNFGPILPPTKVGSETY-NH2
modifications: disulfide 2-7; N-terminus assumed
SMILES: CCCCCCCCCCCCCCCC(=O)N[C@@H](CCC(=O)N[C@@H](CCC(=O)NCCCC[C@@H](NC(=O)[C@H](CCC(=O)O)NC(=O)[C@H](CC(N)=O)NC(=O)[C@H](C)NC(=O)[C@H](CC(C)C)NC(=O)[C@H](CCCNC(=N)N)NC(=O)[C@H](CCC(N)=O)NC(=O)[C@@H](NC(=O)[C@H](C)NC(=O)[C@@H]1CSSC[C@H](NC(=O)[C@@H](N)CO)C(=O)N[C@@H](CC(N)=O)C(=O)N[C@@H]([C@@H](C)O)C(=O)N[C@@H](CO)C(=O)N[C@@H]([C@@H](C)O)C(=O)N1)[C@@H](C)O)C(=O)N[C@@H](Cc1c[nH]cn1)C(=O)N[C@@H](CCCCN)C(=O)N[C@@H](CO)C(=O)N[C@@H](CO)C(=O)N[C@@H](CC(N)=O)C(=O)N[C@@H](CC(N)=O)C(=O)N[C@@H](Cc1ccccc1)C(=O)NCC(=O)N1CCC[C@H]1C(=O)N[C@H](C(=O)N[C@@H](CC(C)C)C(=O)N1CCC[C@H]1C(=O)N1CCC[C@H]1C(=O)N[C@H](C(=O)N[C@@H](CCCCN)C(=O)N[C@H](C(=O)NCC(=O)N[C@@H](CO)C(=O)N[C@@H](CCC(=O)O)C(=O)N[C@H](C(=O)N[C@@H](Cc1ccc(O)cc1)C(N)=O)[C@@H](C)O)C(C)C)[C@@H](C)O)[C@@H](C)CC)C(=O)O)C(=O)O
B4: Compound A64 (peptide)
peptide: K([γGlu-γGlu-C20 diacid])CNTSTCATQRLANELHKSSNNFGPILPPTKVGSETY-NH2
modifications: disulfide 2-7; N-terminus assumed
SMILES: CC[C@H](C)[C@H](NC(=O)[C@@H]1CCCN1C(=O)CNC(=O)[C@H](Cc1ccccc1)NC(=O)[C@H](CC(N)=O)NC(=O)[C@H](CC(N)=O)NC(=O)[C@H](CO)NC(=O)[C@H](CO)NC(=O)[C@H](CCCCN)NC(=O)[C@H](Cc1c[nH]cn1)NC(=O)[C@H](CC(C)C)NC(=O)[C@H](CCC(=O)O)NC(=O)[C@H](CC(N)=O)NC(=O)[C@H](C)NC(=O)[C@H](CC(C)C)NC(=O)[C@H](CCCNC(=N)N)NC(=O)[C@H](CCC(N)=O)NC(=O)[C@@H](NC(=O)[C@H](C)NC(=O)[C@@H]1CSSC[C@H](NC(=O)[C@@H](N)CCCCNC(=O)CC[C@H](NC(=O)CC[C@H](NC(=O)CCCCCCCCCCCCCCCCCCC(=O)O)C(=O)O)C(=O)O)C(=O)N[C@@H](CC(N)=O)C(=O)N[C@@H]([C@@H](C)O)C(=O)N[C@@H](CO)C(=O)N[C@@H]([C@@H](C)O)C(=O)N1)[C@@H](C)O)C(=O)N[C@@H](CC(C)C)C(=O)N1CCC[C@H]1C(=O)N1CCC[C@H]1C(=O)N[C@H](C(=O)N[C@@H](CCCCN)C(=O)N[C@H](C(=O)NCC(=O)N[C@@H](CO)C(=O)N[C@@H](CCC(=O)O)C(=O)N[C@H](C(=O)N[C@@H](Cc1ccc(O)cc1)C(N)=O)[C@@H](C)O)C(C)C)[C@@H](C)O
B5: Compound A13 (peptide)
peptide: SCNTSTCATQRLANE[dK]([γGlu-γGlu-γGlu-Stearoyl])HKSSNNFGPILPPTKVGSETY-NH2
modifications: disulfide 2-7; N-terminus assumed
SMILES: CCCCCCCCCCCCCCCCCC(=O)N[C@@H](CCC(=O)N[C@@H](CCC(=O)N[C@@H](CCC(=O)NCCCC[C@@H](NC(=O)[C@H](CCC(=O)O)NC(=O)[C@H](CC(N)=O)NC(=O)[C@H](C)NC(=O)[C@H](CC(C)C)NC(=O)[C@H](CCCNC(=N)N)NC(=O)[C@H](CCC(N)=O)NC(=O)[C@@H](NC(=O)[C@H](C)NC(=O)[C@@H]1CSSC[C@H](NC(=O)[C@@H](N)CO)C(=O)N[C@@H](CC(N)=O)C(=O)N[C@@H]([C@@H](C)O)C(=O)N[C@@H](CO)C(=O)N[C@@H]([C@@H](C)O)C(=O)N1)[C@@H](C)O)C(=O)N[C@@H](Cc1c[nH]cn1)C(=O)N[C@@H](CCCCN)C(=O)N[C@@H](CO)C(=O)N[C@@H](CO)C(=O)N[C@@H](CC(N)=O)C(=O)N[C@@H](CC(N)=O)C(=O)N[C@@H](Cc1ccccc1)C(=O)NCC(=O)N1CCC[C@H]1C(=O)N[C@H](C(=O)N[C@@H](CC(C)C)C(=O)N1CCC[C@H]1C(=O)N1CCC[C@H]1C(=O)N[C@H](C(=O)N[C@@H](CCCCN)C(=O)N[C@H](C(=O)NCC(=O)N[C@@H](CO)C(=O)N[C@@H](CCC(=O)O)C(=O)N[C@H](C(=O)N[C@@H](Cc1ccc(O)cc1)C(N)=O)[C@@H](C)O)C(C)C)[C@@H](C)O)[C@@H](C)CC)C(=O)O)C(=O)O)C(=O)O

Tests used:
[1] = molecular target: T1, human amylin 3 receptor; assay: cell-based or functional assay
[2] = molecular target: T2, human calcitonin receptor; assay: cell-based or functional assay

pEC50 (cAMP accumulation), 0% HSA [1]	pEC50 (cAMP accumulation), 0.1% HSA [1]	pEC50 (cAMP accumulation), 4% HSA [1]	pEC50 (cAMP accumulation), 0% HSA [2]	pEC50 (cAMP accumulation), 0.1% HSA [2]	pEC50 (cAMP accumulation), 4% HSA [2]	Binder
11.7 pEC50	9.7 pEC50	8.5 pEC50	10.8 pEC50	8.5 pEC50	8 pEC50	B1
10.9 pEC50	9.5 pEC50	8.6 pEC50	10.4 pEC50	8.5 pEC50	7.6 pEC50	B2
12.8 pEC50	11.8 pEC50	10.4 pEC50	11.9 pEC50	10.6 pEC50	9 pEC50	B3
12 pEC50	10.4 pEC50	9.1 pEC50	11.2 pEC50	9 pEC50	8.1 pEC50	B4
11.1 pEC50	8.8 pEC50	7.6 pEC50	10.5 pEC50	8.1 pEC50	7.1 pEC50	SCNTSTCATQRLAN[dK]([γGlu-γGlu-dpeg″-γGlu-C20 diacid])LHKSSNNFGPILPPTKVGSETY-NH2 (disulfide 2-7) [Compound A100]
12.4 pEC50	11.4 pEC50	10.1 pEC50	11.6 pEC50	10.3 pEC50	8.5 pEC50	B5
